Target: T1, ranb3_human RANBP3 (UniProt Q9H6Z4)
T1 sequence: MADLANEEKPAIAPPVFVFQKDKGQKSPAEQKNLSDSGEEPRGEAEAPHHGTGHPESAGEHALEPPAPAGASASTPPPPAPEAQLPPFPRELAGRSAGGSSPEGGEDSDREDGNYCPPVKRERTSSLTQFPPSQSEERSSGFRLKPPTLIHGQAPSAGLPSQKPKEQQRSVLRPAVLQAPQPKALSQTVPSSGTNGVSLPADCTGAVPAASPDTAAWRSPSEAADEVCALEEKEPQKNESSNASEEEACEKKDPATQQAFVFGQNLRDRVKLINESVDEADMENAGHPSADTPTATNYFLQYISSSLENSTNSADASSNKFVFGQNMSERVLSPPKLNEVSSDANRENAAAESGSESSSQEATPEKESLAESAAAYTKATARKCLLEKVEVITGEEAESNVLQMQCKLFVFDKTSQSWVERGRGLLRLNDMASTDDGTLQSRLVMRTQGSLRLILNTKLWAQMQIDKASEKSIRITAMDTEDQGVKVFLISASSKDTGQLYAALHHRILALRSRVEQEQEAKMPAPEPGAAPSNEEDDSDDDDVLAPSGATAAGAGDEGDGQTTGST

GTP-binding nuclear protein Ran (Homo sapiens) (from UniProt P62826) Q69L
effect of a mutation on the interaction: increasing interaction

Source: IntAct's records for PubMed 11932251
